Consider six molecules from PMC3734299, “Farnesyl Phosphatase, a Corpora allata Enzyme Involved in Juvenile Hormone Biosynthesis in Aedes aegypti” (PLoS ONE, 2013).

The Km is the substrate concentration at which the rate is half of its maximum. In general, Vmax refers to the rate approached at saturating substrate. The term kcat denotes the maximal rate divided by the concentration of active sites. Usually kcat/Km stands for the second-order rate constant that governs catalysis at low substrate concentration.

For series [1], the system named is T1, AaFPPase-1.
T1 construct: His-tagged, expressed in E. coli, purified on HiTrap chelating and PD-10 columns, ~35 kDa
In words: malachite green phosphate release. The series is classed as biochemical, Aedes aegypti. The settings on record: 100 mM MES pH 6.0, 2 mM MgCl2, 37 °C; read-out: Km μM ±SE. The text has this: malachite green phosphate release on AaFPPase-1

Series [2] addresses T2, AaFPPase-2 (Aedes aegypti, UniProt Q0IF21).
T2 construct: gene 5568744; His-tagged, expressed in E. coli, purified on HiTrap chelating and PD-10 columns, ~35 kDa
T2 sequence (Q0IF21 1-315): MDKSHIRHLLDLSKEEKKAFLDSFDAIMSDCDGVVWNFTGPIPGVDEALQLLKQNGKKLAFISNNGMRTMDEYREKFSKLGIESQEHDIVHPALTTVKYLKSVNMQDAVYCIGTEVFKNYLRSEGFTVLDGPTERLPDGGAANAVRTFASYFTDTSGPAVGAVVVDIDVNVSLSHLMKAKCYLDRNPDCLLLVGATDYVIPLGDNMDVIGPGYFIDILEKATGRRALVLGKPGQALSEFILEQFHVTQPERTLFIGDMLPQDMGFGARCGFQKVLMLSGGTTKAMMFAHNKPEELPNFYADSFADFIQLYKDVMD
In words: p-NPP phosphatase assay, inhibition. The settings on record: inhibitor 0 to 40 µM, 10 min pre-incubation. The series is classed as biochemical.

For series [3], the target named is T2, AaFPPase-2. Put plainly: malachite green phosphate release. The series is classed as biochemical. The settings on record: 100 mM MES pH 6.0, 2 mM MgCl2, 37 °C; read-out: Km μM ±SE.
In series [4] the test system is T1, AaFPPase-1. Put plainly: p-NPP phosphatase assay, 96-well plate. The series is classed as biochemical, Aedes aegypti. The settings on record: Mg2+ cofactor; optimum pH 6.0.
Substrate in series [5]: CC(C)=CCC/C(C)=C/COP(=O)(O)OP(=O)(O)O
In words: malachite green phosphate release. Type of series: biochemical, Aedes aegypti. The settings on record: 100 mM MES pH 6.0, 2 mM MgCl2, 37 °C.

Substrate in series [6]: CC(C)=CCC/C(C)=C/CC/C(C)=C/CO[P@@](=O)(O)OP(=O)(O)O
In words: malachite green phosphate release. The settings on record: 100 mM MES pH 6.0, 2 mM MgCl2, 37 °C. Type of series: biochemical, Aedes aegypti.

Substrate in series [7]: O=[N+]([O-])c1ccc(OP(=O)(O)O)cc1
In words: p-NPP phosphatase assay, 96-well plate. Type of series: biochemical, Aedes aegypti. The settings on record: Mg2+ cofactor, optimum pH 6.0.

Take `CC(C)=CCC/C(C)=C/COP(=O)(O)OP(=O)(O)O` [GPP]: the Michaelis constant (Km) in series [1] came out at 184 ± 14.2 µM.

`CC(C)=CCC/C(C)=C/CC/C(C)=C/COP(=O)(O)OP(=O)(O)O` [FPP]: the Michaelis constant (Km) in series [1] was determined as 222 ± 11 µM.

As for `CC(=O)N[C@@H](CSC/C=C(\C)CC/C=C(\C)CC/C=C(\C)CCC=C(C)C)C(=O)O` [AGGC], the inhibition entry in series [2] is “AGGC was a potent inhibitor of AaFPPase-1 and AaFPPase-2 (Figure S3)”.

As for `C=C(C)CCO[P@@](=O)(O)OP(=O)(O)O` [IPP], the Km in series [3] and in series [1] was greater than 900 µM each time.

With `O=[N+]([O-])c1ccc(OP(=O)(O)O)cc1` [p-NPP], the Michaelis-Menten constant (Km) in series [4] is 3960 ± 127 µM.

B1: AaFPPase-2 (Aedes aegypti) (protein)
chain: T2 sequence (Q0IF21 1-315)
notes: His-tagged, expressed in E. coli, purified on HiTrap chelating and PD-10 columns, ~35 kDa
Regarding B1, in series [5], the Km is 273.98 ± 2.52 µM, the maximum rate (Vmax) stood at 28.3 µmol/min/mg, the kcat turned out to be 17.5 s⁻¹ and the kcat/Km was found to be 63000 M⁻¹ s⁻¹. In series [6], the Michaelis-Menten constant (Km) is 221.02 ± 15.62 µM, the Vmax worked out at 5.77 µmol/min/mg, the kcat was determined as 2.98 s⁻¹ and the kcat/Km was found to be 13200 M⁻¹ s⁻¹. Besides, in series [7], the Km amounted to 315.5 ± 46.9 µM.
